Experimental data as given in PMC3295573 (2012).

Biological target: T1, LidA(FL), untagged (Legionella pneumophila strain Corby)
T1 chain: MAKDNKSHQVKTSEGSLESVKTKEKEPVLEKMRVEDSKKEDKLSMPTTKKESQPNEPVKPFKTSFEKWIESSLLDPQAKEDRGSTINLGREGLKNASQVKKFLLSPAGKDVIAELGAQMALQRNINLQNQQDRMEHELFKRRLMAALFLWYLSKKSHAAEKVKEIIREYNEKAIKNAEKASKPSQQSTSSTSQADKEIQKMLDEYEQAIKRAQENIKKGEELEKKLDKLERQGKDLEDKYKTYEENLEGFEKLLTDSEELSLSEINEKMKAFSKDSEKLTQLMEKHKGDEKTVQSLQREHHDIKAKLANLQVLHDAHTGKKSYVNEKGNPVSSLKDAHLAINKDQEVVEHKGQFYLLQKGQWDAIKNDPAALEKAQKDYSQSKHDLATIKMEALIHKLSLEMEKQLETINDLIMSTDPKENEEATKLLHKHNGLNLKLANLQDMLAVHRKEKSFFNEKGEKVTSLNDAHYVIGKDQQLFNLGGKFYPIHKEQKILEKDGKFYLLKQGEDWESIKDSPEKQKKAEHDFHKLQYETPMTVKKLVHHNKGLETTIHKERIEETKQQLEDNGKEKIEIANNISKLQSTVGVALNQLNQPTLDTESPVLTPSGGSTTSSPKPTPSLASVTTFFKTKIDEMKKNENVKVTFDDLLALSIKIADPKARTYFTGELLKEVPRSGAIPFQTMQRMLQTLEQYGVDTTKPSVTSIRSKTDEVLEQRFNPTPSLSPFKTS
Test: ITC

B1: Rab22 (FL) (natural protein)
chain: MALRELKVCLLGDTGVGKSSIVWRFVEDSFDPNINPTIGASFMTKTVQYQNELHKFLIWDTAGQERFRALAPMYYRGSAAAIIVYDITKEETFSTLKNWVKELRQHGPPNIVVAIAGNKCDLIDVREVMERDAKDYADSIHAIFVETSAKNAININELFIEISRRIPSTDANLPSGGKGFKLRRQPSEPKRSCC
In the case of B1, the Kd is reported as 200 nM.
